{
  "source": "the supplement of paper PMC10567573",
  "parents": {"B1": {"name": "TEKT4 (parent)", "chain": "YARYHQAFADRDQSERQRHESQQL"}},
  "data": [
    {"variants_of": "B1", "assay": "protein stability index of a GFP-peptide fusion (GPS, HEK-293T) (PSI 1-6); higher = more stable", "settings": "c terminus: a fixed tail appended", "values": [
      {"variant": "YARYHQAFRDRDQSERQRHESQQL", "protein stability index": 2.35},
      {"variant": "YARYHQAFQDRDQSERQRHESQQL", "protein stability index": 2.98},
      {"variant": "YARYHQAFNDRDQSERQRHESQQL", "protein stability index": 3.09},
      {"variant": "YARYHQAFMDRDQSERQRHESQQL", "protein stability index": 2.21},
      {"variant": "YARYHQAFHDRDQSERQRHESQQL", "protein stability index": 3.21},
      {"variant": "YARYHQAFKDRDQSERQRHESQQL", "protein stability index": 3.3},
      {"variant": "YARYHQAFCDRDQSERQRHESQQL", "protein stability index": 1.67},
      {"variant": "YARYHQAFDDRDQSERQRHESQQL", "protein stability index": 3.86},
      {"variant": "YARYHQAFGDRDQSERQRHESQQL", "protein stability index": 2.6},
      {"variant": "YARYHQAFPDRDQSERQRHESQQL", "protein stability index": 3.9},
      {"variant": "YARYHQAFVDRDQSERQRHESQQL", "protein stability index": 3.35},
      {"variant": "YARYHQAFTDRDQSERQRHESQQL", "protein stability index": 3.36},
      {"variant": "YARYHQAFFDRDQSERQRHESQQL", "protein stability index": 2.58},
      {"variant": "YARYHQAFEDRDQSERQRHESQQL", "protein stability index": 3.57},
      {"variant": "YARYHQAFSDRDQSERQRHESQQL", "protein stability index": 2.48},
      {"variant": "YARYHQAFYDRDQSERQRHESQQL", "protein stability index": 2.89},
      {"variant": "YARYHQAFLDRDQSERQRHESQQL", "protein stability index": 3.49},
      {"variant": "YARYHQAFIDRDQSERQRHESQQL", "protein stability index": 3.12},
      {"variant": "YARYHQALADRDQSERQRHESQQL", "protein stability index": 4.72},
      {"variant": "YARYHQAVADRDQSERQRHESQQL", "protein stability index": 3.92},
      {"variant": "YARYHQADADRDQSERQRHESQQL", "protein stability index": 4.63},
      {"variant": "YARYHQAGADRDQSERQRHESQQL", "protein stability index": 3.83},
      {"variant": "YARYHQAEADRDQSERQRHESQQL", "protein stability index": 4.14},
      {"variant": "YARYHQANADRDQSERQRHESQQL", "protein stability index": 4.61},
      {"variant": "YARYHQAHADRDQSERQRHESQQL", "protein stability index": 4.58},
      {"variant": "YARYHQAPADRDQSERQRHESQQL", "protein stability index": 4.75},
      {"variant": "YARYHQAYADRDQSERQRHESQQL", "protein stability index": 2.95},
      {"variant": "YARYHQAAADRDQSERQRHESQQL", "protein stability index": 4.75},
      {"variant": "YARYHQAKADRDQSERQRHESQQL", "protein stability index": 4.01},
      {"variant": "YARYHQARADRDQSERQRHESQQL", "protein stability index": 3.73},
      {"variant": "YARYHQAQADRDQSERQRHESQQL", "protein stability index": 4},
      {"variant": "YARYHQACADRDQSERQRHESQQL", "protein stability index": 3.97},
      {"variant": "YARYHQATADRDQSERQRHESQQL", "protein stability index": 3.66},
      {"variant": "YARYHQAIADRDQSERQRHESQQL", "protein stability index": 4.31},
      {"variant": "YARYHQAWADRDQSERQRHESQQL", "protein stability index": 1.4},
      {"variant": "YARYHQASADRDQSERQRHESQQL", "protein stability index": 3.86},
      {"variant": "YARYHQAMADRDQSERQRHESQQL", "protein stability index": 3.92},
      {"variant": "YARYHQTFADRDQSERQRHESQQL", "protein stability index": 3.48},
      {"variant": "YARYHQPFADRDQSERQRHESQQL", "protein stability index": 3.56},
      {"variant": "YARYHQVFADRDQSERQRHESQQL", "protein stability index": 2.06},
      {"variant": "YARYHQKFADRDQSERQRHESQQL", "protein stability index": 3.25},
      {"variant": "YARYHQLFADRDQSERQRHESQQL", "protein stability index": 3.3},
      {"variant": "YARYHQIFADRDQSERQRHESQQL", "protein stability index": 1.81},
      {"variant": "YARYHQNFADRDQSERQRHESQQL", "protein stability index": 3.07},
      {"variant": "YARYHQYFADRDQSERQRHESQQL", "protein stability index": 1.69},
      {"variant": "YARYHQWFADRDQSERQRHESQQL", "protein stability index": 2.02},
      {"variant": "YARYHQRFADRDQSERQRHESQQL", "protein stability index": 3.5},
      {"variant": "YARYHQSFADRDQSERQRHESQQL", "protein stability index": 3.2},
      {"variant": "YARYHQQFADRDQSERQRHESQQL", "protein stability index": 3.03},
      {"variant": "YARYHQAFADCDQSERQRHESQQL", "protein stability index": 2.14},
      {"variant": "YARYHQAFADGDQSERQRHESQQL", "protein stability index": 2.82},
      {"variant": "YARYHQAFADFDQSERQRHESQQL", "protein stability index": 1.99},
      {"variant": "YARYHQAFADDDQSERQRHESQQL", "protein stability index": 3.59},
      {"variant": "YARYHQAFADYDQSERQRHESQQL", "protein stability index": 1.64},
      {"variant": "YARYHQAFADNDQSERQRHESQQL", "protein stability index": 2.83},
      {"variant": "YARYHQAFADTDQSERQRHESQQL", "protein stability index": 2.12},
      {"variant": "YARYHQAFADPDQSERQRHESQQL", "protein stability index": 3.03},
      {"variant": "YARYHQAFADKDQSERQRHESQQL", "protein stability index": 2.46},
      {"variant": "YARYHQAFADVDQSERQRHESQQL", "protein stability index": 2.12},
      {"variant": "YARYHQAFADHDQSERQRHESQQL", "protein stability index": 2.32},
      {"variant": "YARYHQAFADQDQSERQRHESQQL", "protein stability index": 3.07},
      {"variant": "YARYHQAFADEDQSERQRHESQQL", "protein stability index": 3.29},
      {"variant": "YARYHQAFADSDQSERQRHESQQL", "protein stability index": 2.64},
      {"variant": "YARYHQAFADIDQSERQRHESQQL", "protein stability index": 2.1},
      {"variant": "YARYHQAFADLDQSERQRHESQQL", "protein stability index": 1.98},
      {"variant": "YARYHQAFADADQSERQRHESQQL", "protein stability index": 2.4},
      {"variant": "YARYHQAFADMDQSERQRHESQQL", "protein stability index": 2.54},
      {"variant": "YARYHQAFADRIQSERQRHESQQL", "protein stability index": 2.58},
      {"variant": "YARYHQAFADRFQSERQRHESQQL", "protein stability index": 1.85},
      {"variant": "YARYHQAFADRMQSERQRHESQQL", "protein stability index": 1.7},
      {"variant": "YARYHQAFADRLQSERQRHESQQL", "protein stability index": 1.98},
      {"variant": "YARYHQAFADRCQSERQRHESQQL", "protein stability index": 2.17},
      {"variant": "YARYHQAFADRHQSERQRHESQQL", "protein stability index": 2.15},
      {"variant": "YARYHQAFADREQSERQRHESQQL", "protein stability index": 2.01},
      {"variant": "YARYHQAFADRKQSERQRHESQQL", "protein stability index": 1.67},
      {"variant": "YARYHQAFADRAQSERQRHESQQL", "protein stability index": 1.43},
      {"variant": "YARYHQAFADRGQSERQRHESQQL", "protein stability index": 2.08},
      {"variant": "YARYHQAFASRDQSERQRHESQQL", "protein stability index": 2.49},
      {"variant": "YARYHQAFAARDQSERQRHESQQL", "protein stability index": 1.8},
      {"variant": "YARYHQAFALRDQSERQRHESQQL", "protein stability index": 2.29},
      {"variant": "YARYHQAFACRDQSERQRHESQQL", "protein stability index": 2.36},
      {"variant": "YARYHQAFAIRDQSERQRHESQQL", "protein stability index": 2.58},
      {"variant": "YARYHQAFAFRDQSERQRHESQQL", "protein stability index": 1.99},
      {"variant": "YARYHQAFAWRDQSERQRHESQQL", "protein stability index": 2.39},
      {"variant": "YARYHQAFAQRDQSERQRHESQQL", "protein stability index": 2.17},
      {"variant": "YARYHQAFAKRDQSERQRHESQQL", "protein stability index": 3.05},
      {"variant": "YARYHQAFAVRDQSERQRHESQQL", "protein stability index": 2.32},
      {"variant": "YARYHQAFAGRDQSERQRHESQQL", "protein stability index": 2.37},
      {"variant": "YARYHQAFANRDQSERQRHESQQL", "protein stability index": 2.33},
      {"variant": "YARYHQAFAHRDQSERQRHESQQL", "protein stability index": 2.19},
      {"variant": "YARYHQAFATRDQSERQRHESQQL", "protein stability index": 1.85},
      {"variant": "YARYHQAFAMRDQSERQRHESQQL", "protein stability index": 1.97},
      {"variant": "YARYHQAFAYRDQSERQRHESQQL", "protein stability index": 2.26},
      {"variant": "YARYHQAFARRDQSERQRHESQQL", "protein stability index": 2.77}
    ]}
  ]
}
